Measurements reported in paper PMC12102759.

T1: SARS‐CoV‐2 NSP3 SUD‐M domain (1356–1493), tag cleaved, for FP, P0DTD1
T1 chain: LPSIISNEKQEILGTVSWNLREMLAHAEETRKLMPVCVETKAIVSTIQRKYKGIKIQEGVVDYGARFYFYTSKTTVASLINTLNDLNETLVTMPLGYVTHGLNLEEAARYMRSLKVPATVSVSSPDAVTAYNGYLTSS


Target: T1, SARS‐CoV‐2 NSP3 SUD‐M domain …
Assay: fluorescence polarization (FP)-based affinity measurement
Settings: chain shown with the change;; read off a plot

Binder	ratio to parent [fold]
QFTEEDLMFVLYGVTPY [PRDM14 wt peptide 196-211 H203M]	5.6
QFTEEELHFVLYGVTPY [PRDM14 wt peptide 196-211 D201E]	14
